# Laboratory results from publication PMC10927535.
# T1: LSH3-DBD S45-S190 (Arabidopsis thaliana, UniProt O82268 45-190)
# T1 sequence: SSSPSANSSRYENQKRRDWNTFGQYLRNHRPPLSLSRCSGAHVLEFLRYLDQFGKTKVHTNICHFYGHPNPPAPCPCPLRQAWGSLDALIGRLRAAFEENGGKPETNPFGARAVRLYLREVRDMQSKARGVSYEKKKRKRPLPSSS
# T2: LSH1-DBD M1-L166 (Arabidopsis thaliana, UniProt Q6NNI3 1-166)
# T2 sequence: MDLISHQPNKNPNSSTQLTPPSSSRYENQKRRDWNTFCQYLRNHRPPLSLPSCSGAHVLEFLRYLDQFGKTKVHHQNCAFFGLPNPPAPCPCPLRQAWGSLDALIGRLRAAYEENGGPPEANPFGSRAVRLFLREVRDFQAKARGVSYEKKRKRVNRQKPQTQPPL
# B1: LSH perfect motif 17 bp (oPR799/oPR800) (dsDNA)
# DNA 1: TAGTTTACTGTTGACGT
# DNA 2: ACGTCAACAGTAAACTA
# B2: WT ALOG motif probe (perfect motif) (dsDNA)
# DNA 1: GCGTAGTTTACTGTTGACGTAG
# DNA 2: CTACGTCAACAGTAAACTACG
# Legend:
# LSH3-DBD S45-S190 [1] = target: T1, LSH3-DBD S45-S190; experiment: crystal structure
# LSH1-DBD M1-L166 = target: T2, LSH1-DBD M1-L166; experiment: EMSA
# LSH3-DBD S45-S190 [2] = target: T1, LSH3-DBD S45-S190; experiment: EMSA
Binder,binding result (LSH3-DBD S45-S190 [1]),Kd (LSH1-DBD M1-L166) [nM],Kd (LSH3-DBD S45-S190 [2]) [nM]
B1,binds,,
B2,,< 50,28
